In article PMC9061725, “GGDEF domain as spatial on-switch for a phosphodiesterase by interaction with landmark protein HubP” (NPJ Biofilms and Microbiomes, 2022):
Positions count from the first letter of the chain named. Names and notes keep the numbering of the source.

T1: MshE (Shewanella putrefaciens, UniProt A0ABX8XDM4)
T1 construct: gene tadA; full-length, His-tag purified from E. coli BL21(DE3); strain inferred from locus prefix Sputcn32
T1 sequence (A0ABX8XDM4 1-586): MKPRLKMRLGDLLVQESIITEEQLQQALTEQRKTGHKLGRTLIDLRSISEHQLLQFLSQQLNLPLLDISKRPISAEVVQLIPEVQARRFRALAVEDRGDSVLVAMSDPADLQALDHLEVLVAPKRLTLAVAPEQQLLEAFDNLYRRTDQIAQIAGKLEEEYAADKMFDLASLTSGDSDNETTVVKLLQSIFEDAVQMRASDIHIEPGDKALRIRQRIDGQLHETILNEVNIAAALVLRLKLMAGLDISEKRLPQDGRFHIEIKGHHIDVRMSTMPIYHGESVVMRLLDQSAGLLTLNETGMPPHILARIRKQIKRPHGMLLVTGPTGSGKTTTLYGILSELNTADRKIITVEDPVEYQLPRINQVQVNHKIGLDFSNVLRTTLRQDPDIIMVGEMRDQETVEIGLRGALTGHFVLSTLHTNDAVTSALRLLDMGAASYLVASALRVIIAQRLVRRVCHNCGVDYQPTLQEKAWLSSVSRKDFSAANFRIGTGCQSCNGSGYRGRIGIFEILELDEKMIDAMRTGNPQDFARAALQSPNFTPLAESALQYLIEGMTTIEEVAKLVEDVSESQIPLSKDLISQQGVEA

T2: SoGGDEF_(PdeB) K577S (S. oneidensis, UniProt Q8EJM6 454-587, K577S)
T2 sequence: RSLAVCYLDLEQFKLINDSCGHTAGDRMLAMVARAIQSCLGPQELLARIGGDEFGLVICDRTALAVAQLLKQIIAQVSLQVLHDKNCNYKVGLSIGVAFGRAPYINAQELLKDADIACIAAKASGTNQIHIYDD

T3: SoGGDEF_(PdeB) E497S (S. oneidensis, UniProt Q8EJM6 454-587, E497S)
T3 sequence: T2 sequence with E44S, S124K

T4: SoGGDEF_(PdeB) Q525S (S. oneidensis, UniProt Q8EJM6 454-587, Q525S)
T4 sequence: T2 sequence with Q72S, S124K

T5: SoGGDEF_(PdeB) K575S (S. oneidensis, UniProt Q8EJM6 454-587, K575S)
T5 sequence: T2 sequence with K122S, S124K

T6: SoGGDEF_(PdeB) G494A (S. oneidensis, UniProt Q8EJM6 454-587, G494A)
T6 sequence: T2 sequence with G41A, S124K

T7: FimV domain of S. oneidensis HubP (S. oneidensis, biotinylated with EZ-Link NHS-PEG4-biotin (for the BLI assay only))
T7 chain: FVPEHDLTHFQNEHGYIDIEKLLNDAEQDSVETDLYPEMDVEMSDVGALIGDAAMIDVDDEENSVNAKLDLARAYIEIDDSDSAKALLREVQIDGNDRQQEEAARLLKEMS

B1: FimV domain of S. oneidensis HubP (domain or fragment)
chain: T7 chain
modifications: biotinylated with EZ-Link NHS-PEG4-biotin (for the BLI assay only)
B2: MBP-GGDEF_(SoPdeB), GGDEF domain of S. oneidensis PdeB, wild type (domain or fragment, UniProt Q8EJM6 454-587, looked up)
chain: T2 sequence with S124K
notes: GGDEF (diguanylate cyclase) domain of the phosphodiesterase PdeB of Shewanella oneidensis; construct limits may stand there; The MBP tag is named for SEC, iSCAMS and pull-down; also called SoGGDEF; SoGGDEF_(PdeB); source: E. coli BL21(DE3), pET24c, purified (His Trap, SEC)
B3: SoGGDEF_(PdeB) K575S (domain or fragment, S. oneidensis, UniProt Q8EJM6 454-587, looked up)
chain: T2 sequence with K122S, S124K
notes: GGDEF domain of PdeB of Shewanella oneidensis with K575S; Variant of m1; the methods of the pull-down call the GGDEF variants MBP-tagged; source: E. coli BL21(DE3), pET24c, purified (His Trap, SEC)
B4: SoGGDEF_(PdeB) K577S (domain or fragment, S. oneidensis, UniProt Q8EJM6 454-587, looked up)
chain: T2 sequence
notes: GGDEF domain of PdeB of Shewanella oneidensis with K577S; Variant of m1; the methods of the pull-down call the GGDEF variants MBP-tagged; source: E. coli BL21(DE3), pET24c, purified (His Trap, SEC)

Legend:
[1] = target: FimV domain of S. putrefaciens HubP (S. putrefaciens)
MshE = target: T1, MshE; assay: isothermal titration calorimetry; settings: 25 °C; one set of binding sites; value only in figure; read-out: dissociation constant
Description: isothermal titration calorimetry on MshE | both MshE and MshE-N bind c-di-GMP with high affinity

MshE-N = target: T8, MshE-N (Shewanella putrefaciens, UniProt A0ABX8XDM4); assay: isothermal titration calorimetry; settings: 25 °C; one set of binding sites; value only in figure; read-out: dissociation constant
T8 construct: gene tadA; N-terminal domain aa 2-145, His-tag purified from E. coli BL21(DE3); strain inferred from locus prefix Sputcn32
Description: isothermal titration calorimetry on MshE-N | both MshE and MshE-N bind c-di-GMP with high affinity

SoGGDEF_(PdeB) K577S = target: T2, SoGGDEF_(PdeB) K577S; assay: BLI
SoGGDEF_(PdeB) E497S = target: T3, SoGGDEF_(PdeB) E497S; assay: BLI
SoGGDEF_(PdeB) Q525S = target: T4, SoGGDEF_(PdeB) Q525S; assay: BLI
SoGGDEF_(PdeB) K575S = target: T5, SoGGDEF_(PdeB) K575S; assay: BLI
SoGGDEF_(PdeB) G494A = target: T6, SoGGDEF_(PdeB) G494A; assay: BLI
[2] = target: B2; assay: BLI; biotinylated SoFimV held on streptavidin biosensors (BLITZ), SoGGDEF variants as analyte; medium salt HEPES buffer pH 7.5 for association only, high-salt Tris buffer pH 8 for association-dissociation; settings: both partners purified
[3] = target: T7, FimV domain of S. oneidensis HubP; assay: interferometric scattering mass spectrometry (iSCAMS, mass photometry); MBP-GGDEF_(SoPdeB)/FimV_(HubP) complex, samples prepared at 1 µM, low-salt HEPES buffer (20 mM HEPES, 50 mM NaCl, 50 mM KCl, 5 mM MgCl2, pH 7.5), room temperature; settings: both partners purified
[4] = target: T7, FimV domain of S. oneidensis HubP; assay: BLI; biotinylated SoFimV held on streptavidin biosensors (BLITZ), SoGGDEF variants as analyte; medium salt HEPES buffer pH 7.5 for association only, high-salt Tris buffer pH 8 for association-dissociation; settings: both partners purified

Molecule: S. putrefaciens PdeB-mVenus K527E/Q528S (natural protein)
- single-molecule tracking of PdeB-mVenus K527E/Q528S in S. putrefaciens cells: share of static molecules [1]: 61%

Molecule: MBP-GGDEF_(PdeB), GGDEF domain of S. putrefaciens PdeB (domain or fragment)
- single-molecule tracking of PdeB-mVenus in S. putrefaciens cells: share of molecules statically confined to the cell pole [1]: 84%

Molecule: Nc1nc2c(ncn2[C@@H]2O[C@@H]3CO[P@](=O)(O)O[C@H]4[C@@H](O)[C@H](n5cnc6c(=O)[nH]c(N)nc65)O[C@@H]4CO[P@](=O)(O)O[C@H]3[C@H]2O)c(=O)[nH]1 [c-di-GMP]
- Kd (MshE): 9 µM
- Kd (MshE-N): 4 µM

Molecule: B1
- Kd (SoGGDEF_(PdeB) K577S): 2.72 µM
- Kd (SoGGDEF_(PdeB) E497S): 0.299 µM
- Kd (SoGGDEF_(PdeB) Q525S): 0.592 µM
- Kd (SoGGDEF_(PdeB) K575S): 22 µM
- Kd (SoGGDEF_(PdeB) G494A): 0.835 µM
- Kd [2]: ~0.2 µM

Molecule: B2
- stoichiometry N [3]: ~1 GGDEF per FimV (2:2)

Molecule: B3
- fold increase of KD against the wild type [4]: 100 fold

Molecule: B4
- fold increase of KD against the wild type [4]: 10 fold
